The target in the test is ribosomes of dog pancreas rough microsomes (ribosomal pellet after digitonin solubilisation) (dog (endogenous in dog pancreas microsomes)). As to the kind of experiment: co-sedimentation.

As for “RAMP4 (ribosome-associated membrane protein 4, dog pancreas microsomes) (from UniProt A0A8I3PRN4 1-66) (natural protein)”, the percent in the ribosome pellet lay within 10 to 20%.

As to “Sec61β, subunit of the Sec61p translocon complex (dog pancreas microsomes) (from UniProt P60467 1-96) (natural protein)”, the percent pelleted with ribosomes stood at 80%.

For the origin of these results see publication PMC2711601.
